Test results as given in patent US12465660B2, “Compositions and methods for cancer imaging and radiotherapy” (VECT-HORUS, priority 2017, dated 2025).
Positions of bridges follow the written chain, without caps; N, C: chain ends. Non-standard residues stand in square brackets, D forms with d. Primed or numbered codes have the meaning given here. No end group written: not given here. *: point of attachment. DOTA = O=C(O)CN1CCN(CC(=O)O)CCN(CC(=O)*)CCN(CC(=O)O)CC1; NODAGA′ = not defined here; PEG12′ = not defined here; βAla = NCCC(=O)O

Key:
[1] = biological target: T1, Recombinant human LDLR (His-tagged) (Homo sapiens, UniProt P01130); assay: SPR affinity of MG04/VH-DO35, CH44, FG770, CH40 and FG769 for LDLR (Biacore T200); assay type: binding; settings: 25° C.
T1 construct: purchased Sino Biological (Beijing, China)
Procedure: (§1) Recombinant human LDLR (His-tagged) was purchased from Sino Biological (Beijing, China). Interaction of conjugates with LDLR was tested at 25° C. using a Biacore T200 (GE Healthcare) and 50 mM HEPES-NaOH pH7.4, 150 mM NaCl, 0.005% Tween-20, 50 μM EDTA as running buffer. hLDLR was immobilized on a NiHC sensor chip (Xantec, Dusseldorf, Germany) at a density of 35-60 fmol/mm^2. Binding of conjugates to LDLR-coated flow cells was corrected for non-specific binding to uncoated flow cells. The single-cycle kinetic method was used to measure the affinity of ligands with LDLR. Ligands were diluted in running buffer and injected sequentially 2 minutes at 30 μl/min using increasing concentrations. Blank run injections of running buffer were performed in the same conditions before ligand injection. Double-subtracted sensorgrams were globally fitted with the 1:1 Langmuir binding model from Biacore T200 Evaluation version 2.0.

[2] = biological target: T1, Recombinant human LDLR (His-tagged); assay: SPR affinity of conjugates A, B, C and D for LDLR (Biacore T200); assay type: binding; settings: 25° C.
Procedure: as §1

[3] = test system: CHO-hLDLR-GFP cells; assay: Binding/endocytosis of fluorescent conjugates by LDLR expressing cells (confocal microscopy); assay type: cell-based, Chinese Hamster; settings: live cells, 1 hour at 37° C.
Excerpt: In these experiments, with regards to FIG. 2, the LDLR-GFP signal is visualized in column 2, the conjugate signal is either directly visualized in column 4 using the A680 fluorescence or in column 3 using an anti-hFc-A594 conjugated secondary antibody. Cell nuclei were stained in blue with Hoechst and its signal can be visualized in column 1. The co-labelling of LDLR-GFP and conjugates can be visualized as a highlight signal in column 5 on the merge image.

T1 sequence (P01130 22-860): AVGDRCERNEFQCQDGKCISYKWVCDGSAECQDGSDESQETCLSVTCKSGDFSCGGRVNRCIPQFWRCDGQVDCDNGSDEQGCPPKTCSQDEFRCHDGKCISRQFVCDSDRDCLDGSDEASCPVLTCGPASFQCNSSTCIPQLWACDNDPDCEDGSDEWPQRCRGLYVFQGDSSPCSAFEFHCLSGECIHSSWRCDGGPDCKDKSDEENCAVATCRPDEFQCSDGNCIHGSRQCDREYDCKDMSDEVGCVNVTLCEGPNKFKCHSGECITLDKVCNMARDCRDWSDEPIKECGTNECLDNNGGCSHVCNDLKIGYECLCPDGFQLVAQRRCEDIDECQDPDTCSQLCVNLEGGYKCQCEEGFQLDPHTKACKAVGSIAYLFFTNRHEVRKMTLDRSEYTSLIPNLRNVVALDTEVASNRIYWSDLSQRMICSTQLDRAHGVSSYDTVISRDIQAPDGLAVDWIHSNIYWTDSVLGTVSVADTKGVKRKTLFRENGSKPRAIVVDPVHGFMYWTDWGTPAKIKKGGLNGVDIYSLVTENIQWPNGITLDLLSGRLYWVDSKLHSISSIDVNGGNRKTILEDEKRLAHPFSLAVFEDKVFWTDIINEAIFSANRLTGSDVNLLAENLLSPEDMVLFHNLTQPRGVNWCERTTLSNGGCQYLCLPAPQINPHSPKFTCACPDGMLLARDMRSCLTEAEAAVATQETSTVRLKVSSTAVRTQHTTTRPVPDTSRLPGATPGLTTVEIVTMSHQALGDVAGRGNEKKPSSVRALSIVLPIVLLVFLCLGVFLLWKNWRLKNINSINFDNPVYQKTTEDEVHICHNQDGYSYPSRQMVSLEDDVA

Substance	KD [1]	KD [2]	binding to and endocytosis by CHO-hLDLR-GFP cells [3]
DOTA-βAla-PEG12-SEQ ID NO: 13-NH2 ({DOTA-βAla-PEG12′}-[dC]RPLGRMC-NH2; disulfide 1-8) [FG769, scrambled counterpart of FG770]	No Binding		
Fc-Peptide D-A680 (CRMLGRPC; cysteine pairing not given here; also: fused to a dimerising Fc or GST) [Conjugate D, control]		No Binding	are not
NODAGA-βAla-PEG12-SEQ ID NO: 13-NH2 ({NODAGA′-βAla-PEG12′}-[dC]RPLGRMC-NH2; disulfide 1-8) [CH40, scrambled counterpart of CH44]	No Binding		
